From article PMC3911951, “Crystal Structure of Arginine Methyltransferase 6 from Trypanosoma brucei” (PLoS ONE, 2014)
Values belong to the substance of their own block, whether it stands above or below them.

What was measured:
[1] = molecular target: Trypanosoma brucei arginine methyltransferase 6 (TbPRMT6) (Trypanosoma brucei); experiment: ITC; 3 mM AcH4-21 peptide injected into 100 µM TbPRMT6 with SAH bound; 25°C; 30 mM Tris pH 8.0, 100 mM NaCl, 1 mM EDTA; one-binding-site model
[2] = molecular target: Trypanosoma brucei arginine methyltransferase 6 (TbPRMT6) (Trypanosoma brucei); experiment: SAXS; FL-TbPRMT6 at 1.0, 3.0 and 5.0 mg/ml in 30 mM Tris pH 8.0, 200 mM NaCl, 1 mM EDTA; molecular mass by SAXSMOW
[3] = molecular target: Trypanosoma brucei arginine methyltransferase 6 (TbPRMT6), SAH-bound (Trypanosoma brucei); experiment: ITC; AcH4-21 peptide (3 mM) injected into TbPRMT6 (100 uM) bound to SAH; MicroCal iTC200, 25 °C; 30 mM Tris pH 8.0, 100 mM NaCl, 1 mM EDTA; one-binding-site model

Substance: peptide corresponding to the first 21 residues of bovine histone H4 (AcH4-21)
Kd [1]: 45 µM

stoichiometry N [2]: 2
Substance: Trypanosoma brucei arginine methyltransferase 6 (TbPRMT6) (enzyme)

Substance: AcH4-21, peptide corresponding to the first 21 residues of bovine histone H4
stoichiometry N [3]: 1.79
